Results reported in patent US20100261620A1 (published 2010).
Substitutions are numbered along the chain they refer to. One block for each binder: values may come before it.

Molecular target: IL-13 (Homo sapiens (Human), UniProt P35225 35-146, limits assumed)
Experiment: Biacore

Sequence of IL-13 (P35225 35-146 limits assumed): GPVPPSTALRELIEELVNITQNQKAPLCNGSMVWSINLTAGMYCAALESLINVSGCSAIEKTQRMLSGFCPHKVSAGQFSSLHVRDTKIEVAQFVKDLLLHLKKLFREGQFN

Kd: 44 pM
koff: 4.7e-05 s⁻¹
kon: 1.06e+06 M⁻¹ s⁻¹
B1: M453 (antibody, V domains shown)
VH: QVTLKESGPVLVKPTETLTLTCTVSGFSLSTYGMGVGWIRQPPGKALEWLAHIWWDDVKRYNPALKSRLTISKDTSKSQVVLTMTNMDPVDTATYYCARMGSDYDVWFDYWGQGTLVTVSS
VL: EIVLTQSPATLSLSPGERATLSCRASKSISKYLAWYQQKPGQAPRLLIYSGSTLQSGIPARFSGSGSGTDFTLTISSLEPEDFAVYYCQQHDWGPYTFGQGTKLEIK
notes: anti-IL-13, human IgG1

Kd: 8 pM
koff: 8e-06 s⁻¹
kon: 1.05e+06 M⁻¹ s⁻¹
B2: M1292 (antibody, V domains shown)
VH: B1 VH with M34E, M100L
VL: EIVLTQSPATLSLSPGERATLSCRASKSISKYLAWYQQKPGQAPRLLIYSGSTLQSGIPARFSGSGSGTDFTLTISSLEPEDFAVYYCQQHDYPYTFGQGTKLEIK

Kd: 92 pM
koff: 0.000127 s⁻¹
kon: 1.39e+06 M⁻¹ s⁻¹
B3: M448 (antibody, V domains shown)
VH: B1 VH
VL: B1 VL with D92S, W93H
notes: anti-IL-13, human IgG1

Kd: 184 pM
koff: 0.00022 s⁻¹
kon: 1.2e+06 M⁻¹ s⁻¹
B4: M444 (antibody, V domains shown)
VH: B1 VH
VL: B1 VL with D92V
notes: anti-IL-13, human IgG1

Kd: 365 pM
koff: 0.000348 s⁻¹
kon: 950000 M⁻¹ s⁻¹
B5: M474 (antibody, V domains shown)
VH: B1 VH
VL: B1 VL with W93L
notes: anti-IL-13, human IgG1

Kd: 192 pM
koff: 0.00024 s⁻¹
kon: 1.25e+06 M⁻¹ s⁻¹
B6: M479 (antibody, V domains shown)
VH: B1 VH
VL: B1 VL with H91P, D92L, W93D, G94T
notes: anti-IL-13, human IgG1

Kd: 208 pM
koff: 0.000247 s⁻¹
kon: 1.19e+06 M⁻¹ s⁻¹
B7: M478 (antibody, V domains shown)
VH: B1 VH
VL: B1 VL with D92N, W93H
notes: anti-IL-13, human IgG1

Kd: 366 pM
koff: 0.000417 s⁻¹
kon: 1.14e+06 M⁻¹ s⁻¹
B8: M462 (antibody, V domains shown)
VH: B1 VH
VL: B1 VL with D92N, W93F
notes: anti-IL-13, human IgG1

Kd: 65 pM
koff: 7.4e-05 s⁻¹
kon: 1.13e+06 M⁻¹ s⁻¹
B9: M454 (antibody, V domains shown)
VH: B1 VH
VL: B1 VL with H91Q, W93Y
notes: anti-IL-13, human IgG1

Kd: 187 pM
koff: 0.000213 s⁻¹
kon: 1.14e+06 M⁻¹ s⁻¹
B10: M475 (antibody, V domains shown)
VH: B1 VH
VL: B1 VL with D92L, W93M
notes: anti-IL-13, human IgG1

Kd: 296 pM
koff: 0.0003 s⁻¹
kon: 1.02e+06 M⁻¹ s⁻¹
B11: M482 (antibody, V domains shown)
VH: B1 VH
VL: B1 VL with D92L, W93D, G94S
notes: anti-IL-13, human IgG1; printed changes are the same as for M470

Kd: 148 pM
koff: 0.000182 s⁻¹
kon: 1.24e+06 M⁻¹ s⁻¹
B12: M456 (antibody, V domains shown)
VH: B1 VH
VL: B1 VL with D92S, W93Y
notes: anti-IL-13, human IgG1

Kd: 262 pM
koff: 0.000291 s⁻¹
kon: 1.11e+06 M⁻¹ s⁻¹
B13: M445 (antibody, V domains shown)
VH: B1 VH
VL: B1 VL with D92L, W93L
notes: anti-IL-13, human IgG1

Kd: 312 pM
koff: 0.000403 s⁻¹
kon: 1.29e+06 M⁻¹ s⁻¹
B14: M473 (antibody, V domains shown)
VH: B1 VH
VL: B1 VL with W93R, G94D
notes: anti-IL-13, human IgG1

Kd: 193 pM
koff: 0.000214 s⁻¹
kon: 1.11e+06 M⁻¹ s⁻¹
B15: M457 (antibody, V domains shown)
VH: B1 VH
VL: B1 VL with W93Y, G94A
notes: anti-IL-13, human IgG1

Kd: 55 pM
koff: 7.1e-05 s⁻¹
kon: 1.29e+06 M⁻¹ s⁻¹
B16: M464 (antibody, V domains shown)
VH: B1 VH
VL: B1 VL with D92E
notes: anti-IL-13, human IgG1

Kd: 754 pM
koff: 0.000944 s⁻¹
kon: 1.25e+06 M⁻¹ s⁻¹
B17: H2L6 HFS variant (antibody, V domains shown)
VH: B1 VH
VL: B1 VL with D92N, W93E, G94Y
notes: IgG1; also called IL13-62

Kd: 37 pM
koff: 6.3e-05 s⁻¹
kon: 1.7e+06 M⁻¹ s⁻¹
B18: M463 (antibody, V domains shown)
VH: B1 VH
VL: B1 VL with H91Q, W93L
notes: anti-IL-13, human IgG1

Kd: 225 pM
koff: 0.000219 s⁻¹
kon: 970000 M⁻¹ s⁻¹
B19: M466 (antibody, V domains shown)
VH: B1 VH
VL: B1 VL with G94S
notes: anti-IL-13, human IgG1

Kd: 253 pM
koff: 0.000364 s⁻¹
kon: 1.44e+06 M⁻¹ s⁻¹
B20: M471 (antibody, V domains shown)
VH: B1 VH
VL: B1 VL with H91P, D92I, W93D, G94A
notes: anti-IL-13, human IgG1

Kd: 94 pM
koff: 0.0001 s⁻¹
kon: 1.06e+06 M⁻¹ s⁻¹
B21: M468 (antibody, V domains shown)
VH: B1 VH
VL: B1 VL with D92F
notes: anti-IL-13, human IgG1

Kd: 306 pM
koff: 0.000336 s⁻¹
kon: 1.1e+06 M⁻¹ s⁻¹
B22: M465 (antibody, V domains shown)
VH: B1 VH
VL: B1 VL with W93N, G94S
notes: anti-IL-13, human IgG1

Kd: 495 pM
koff: 0.00048 s⁻¹
kon: 970000 M⁻¹ s⁻¹
B23: M477 (antibody, V domains shown)
VH: B1 VH
VL: B1 VL with D92S, W93S
notes: anti-IL-13, human IgG1

Kd: 233 pM
koff: 0.00027 s⁻¹
kon: 1.16e+06 M⁻¹ s⁻¹
B24: M452 (antibody, V domains shown)
VH: B1 VH
VL: B1 VL with D92L, W93N
notes: anti-IL-13, human IgG1

Kd: 63 pM
koff: 0.000107 s⁻¹
kon: 1.71e+06 M⁻¹ s⁻¹
B25: M450 (antibody, V domains shown)
VH: B1 VH
VL: B1 VL with W93P
notes: anti-IL-13, human IgG1

Kd: 177 pM
koff: 0.000333 s⁻¹
kon: 1.88e+06 M⁻¹ s⁻¹
B26: M451 (antibody, V domains shown)
VH: B1 VH
VL: B1 VL with H91P, D92L, W93D, G94V
notes: anti-IL-13, human IgG1

Kd: 100 pM
koff: 0.000143 s⁻¹
kon: 1.43e+06 M⁻¹ s⁻¹
B27: M469 (antibody, V domains shown)
VH: B1 VH
VL: B1 VL with G94E
notes: anti-IL-13, human IgG1

Kd: 89 pM
koff: 9e-05 s⁻¹
kon: 1.02e+06 M⁻¹ s⁻¹
B28: M449 (antibody, V domains shown)
VH: B1 VH
VL: B1 VL with D92E, W93S
notes: anti-IL-13, human IgG1

Kd: 186 pM
koff: 0.000303 s⁻¹
kon: 1.63e+06 M⁻¹ s⁻¹
B29: M455 (antibody, V domains shown)
VH: B1 VH
VL: B1 VL with D92N, W93E, G94A
notes: anti-IL-13, human IgG1

Kd: 315 pM
koff: 0.000321 s⁻¹
kon: 1.02e+06 M⁻¹ s⁻¹
B30: M476 (antibody, V domains shown)
VH: B1 VH
VL: B1 VL with D92S, W93V
notes: anti-IL-13, human IgG1

Kd: 259 pM
koff: 0.000375 s⁻¹
kon: 1.44e+06 M⁻¹ s⁻¹
B31: M472 (antibody, V domains shown)
VH: B1 VH
VL: B1 VL with H91P, D92L, W93D, G94S
notes: anti-IL-13, human IgG1

Kd: 356 pM
koff: 0.000449 s⁻¹
kon: 1.26e+06 M⁻¹ s⁻¹
B32: M459 (antibody, V domains shown)
VH: B1 VH
VL: B1 VL with H91P, D92L, W93E, G94A
notes: anti-IL-13, human IgG1

Kd: 55 pM
koff: 5.4e-05 s⁻¹
kon: 980000 M⁻¹ s⁻¹
B33: M447 (antibody, V domains shown)
VH: B1 VH
VL: B1 VL with H91Q, W93I
notes: anti-IL-13, human IgG1

Kd: 239 pM
koff: 0.000311 s⁻¹
kon: 1.3e+06 M⁻¹ s⁻¹
B34: M470 (antibody, V domains shown)
VH: B1 VH
VL: B1 VL with D92L, W93D, G94S
notes: anti-IL-13, human IgG1

Kd: 621 pM
koff: 0.001 s⁻¹
kon: 1.61e+06 M⁻¹ s⁻¹
B35: M1268 (antibody, V domains shown)
VH: B1 VH with M34V, M100L
VL: B1 VL with D92N, W93E, G94Y
notes: anti-IL-13, human IgG1; text gives the Met positions as 34 and 100; copies: 2 + 2

Kd: 88 pM
koff: 7.8e-05 s⁻¹
kon: 880000 M⁻¹ s⁻¹
B36: M443 (antibody, V domains shown)
VH: B1 VH
VL: B1 VL with D92S
notes: anti-IL-13, human IgG1

Kd: 193 pM
koff: 0.000257 s⁻¹
kon: 1.33e+06 M⁻¹ s⁻¹
B37: M461 (antibody, V domains shown)
VH: B1 VH
VL: B1 VL with D92S, W93I
notes: anti-IL-13, human IgG1

Kd: 345 pM
koff: 0.000465 s⁻¹
kon: 1.35e+06 M⁻¹ s⁻¹
B38: M446 (antibody, V domains shown)
VH: B1 VH
VL: B1 VL with D92V, W93G
notes: anti-IL-13, human IgG1

Kd: 452 pM
koff: 0.000455 s⁻¹
kon: 1e+06 M⁻¹ s⁻¹
B39: M467 (antibody, V domains shown)
VH: B1 VH
VL: B1 VL with D92S, G94A
notes: anti-IL-13, human IgG1
